Each block holds one substance with its values, some of them ahead of it.
Experiments:
[1] = target: pMCMV-loaded H-2 L^d (mouse) (UniProt P01897)
[2] = target: p2Ca-loaded H-2 L^d (mouse) (UniProt P01897); experiment: flow cytometry, direct saturation of FITC-30.5.7 Fab on peptide-loaded RMA-S L^d cells
[3] = target: SL9-loaded H-2 L^d (mouse) (UniProt P01897); experiment: as above
[4] = target: QL9-loaded H-2 L^d (mouse) (UniProt P01897); experiment: as above
[5] = target: serologically reactive H-2 L^d on RENCA cells (murine) (UniProt P01897); experiment: flow cytometry on γ-IFN stimulated RENCA cells (5-50 units/ml)
[6] = target: unloaded H-2 L^d on RMA-S L^d cells (mouse) (UniProt P01897); experiment: flow cytometry on RMA-S L^d cells, no peptide, bar '22 degrees' (the legend says 27°C); mAb 30.5.7 then PE-labelled goat anti-mouse IgG
[7] = target: unloaded H-2 L^d on RMA-S L^d cells (mouse) (UniProt P01897); experiment: flow cytometry on RMA-S L^d cells, no peptide, bar '37 degrees'; mAb 30.5.7 then PE-labelled goat anti-mouse IgG
[8] = target: pMCMV-loaded H-2 L^d (mouse) (UniProt P01897); remark: listed apart in the source
[9] = target: p2Ca-loaded H-2 L^d (mouse) (UniProt P01897); experiment: flow cytometry on L^d cells loaded with graded peptide concentrations
[10] = target: QL9-loaded H-2 L^d (mouse) (UniProt P01897); experiment: as above
[11] = target: serologically reactive H-2 L^d on RENCA cells (murine) (UniProt P01897); experiment: flow cytometry on unstimulated RENCA cells
[12] = target: p2Ca-loaded H-2 L^d (mouse) (UniProt P01897); experiment: flow cytometry on peptide-loaded RMA-S L^d cells; mAb 30.5.7 then PE-labelled goat anti-mouse IgG
[13] = target: SL9-loaded H-2 L^d (mouse) (UniProt P01897); experiment: as above
tum (mouse) = experiment: as above
[14] = target: QL9-loaded H-2 L^d (mouse) (UniProt P01897); experiment: as above
[15] = target: SIY-loaded H-2 K^bm3 (mouse); experiment: flow cytometry on peptide-loaded T2 K^bm3 cells
[16] = target: QL9-loaded H-2 L^d (mouse) (UniProt P01897); experiment: flow cytometry on RMA-S L^d cells loaded with 100 µM peptide; two-fold dilutions of soluble monovalent 2C TCR, detected with H57-FITC
[17] = target: p2Ca-loaded H-2 L^d (mouse) (UniProt P01897); experiment: flow cytometry, serial dilutions on p2Ca-loaded RMA-S L^d cells, detection with H57-FITC
[18] = target: p2Ca-loaded H-2 L^d (mouse) (UniProt P01897); experiment: competition with constant FITC-30.5.7 Fab on peptide-loaded RMA-S L^d cells, flow cytometry
[19] = target: QL9-loaded H-2 L^d (mouse) (UniProt P01897); experiment: flow cytometry, serial dilutions on QL9-loaded RMA-S L^d cells, detection with H57-FITC

Chain of pMCMV-loaded H-2 L^d (mouse) (P01897 25-309): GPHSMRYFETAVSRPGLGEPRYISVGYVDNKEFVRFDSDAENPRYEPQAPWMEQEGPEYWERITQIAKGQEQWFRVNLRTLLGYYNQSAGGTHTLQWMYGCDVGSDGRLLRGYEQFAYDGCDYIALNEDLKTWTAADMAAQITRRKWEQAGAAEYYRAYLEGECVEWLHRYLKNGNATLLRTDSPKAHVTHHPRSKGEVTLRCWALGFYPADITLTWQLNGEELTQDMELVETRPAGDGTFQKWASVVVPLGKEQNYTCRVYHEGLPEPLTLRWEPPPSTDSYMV
Chain of SL9-loaded H-2 L^d (mouse) (P01897 25-309): as above
Chain of unloaded H-2 L^d on RMA-S L^d cells (mouse) (P01897 25-309): as above
Chain of soluble divalent 2C TCR/Ig (A2KF29 whole entry, looked up, tested part not stated): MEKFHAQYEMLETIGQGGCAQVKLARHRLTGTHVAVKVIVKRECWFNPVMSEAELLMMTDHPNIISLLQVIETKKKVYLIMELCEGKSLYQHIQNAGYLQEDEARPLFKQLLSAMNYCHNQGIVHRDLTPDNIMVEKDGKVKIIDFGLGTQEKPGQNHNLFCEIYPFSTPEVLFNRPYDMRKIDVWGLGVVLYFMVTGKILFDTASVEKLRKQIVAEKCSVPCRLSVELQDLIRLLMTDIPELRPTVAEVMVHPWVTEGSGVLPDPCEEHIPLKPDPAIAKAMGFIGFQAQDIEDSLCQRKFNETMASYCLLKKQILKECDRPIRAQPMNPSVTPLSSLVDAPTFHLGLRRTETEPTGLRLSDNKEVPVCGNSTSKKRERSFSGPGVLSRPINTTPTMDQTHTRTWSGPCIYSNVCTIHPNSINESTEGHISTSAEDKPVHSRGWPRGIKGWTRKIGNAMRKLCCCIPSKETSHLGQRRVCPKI

Substance: FITC-labeled 30.5.7 Fab
Kd [1]: 4.8 nM
Kd [2]: 5.8 nM
Kd [3]: 4.8 to 6.4 nM
Kd [4]: 12.2 nM

Substance: mAb 30.5.7 (antibody)
MCF [5]: 2670 to 3040
Mean Channel Fluorescence [6]: 347
Mean Channel Fluorescence [7]: 60
Mean Channel Fluorescence [8]: 648
Mean Channel Fluorescence (gp 70 (mouse)): 677
MCF [9]: 3000
MCF [10]: 3000
MCF [11]: 500
Mean Channel Fluorescence [12]: 693
Mean Channel Fluorescence [13]: 556
Mean Channel Fluorescence (tum (mouse)): 578
Mean Channel Fluorescence [14]: 688

MCF [15]: 36
Substance: soluble divalent 2C TCR/Ig (from UniProt A2KF29)

EC50 (read off the curve) [16]: 300 nM
concentration required to detect binding [17]: > 3000 nM
Kapp [18]: > 2000 nM
Kd [18]: > 2000 nM
concentration required to detect binding [19]: > 100 nM
Substance: soluble monovalent 2C TCR

Source: US20110243967A1
